Data on 1 molecule can be found in PMC9034101.

This test has as its target Cy5 N-terminal-labeled WWP2 (human) (UniProt O00308). In words: MST; 10 nM N-terminal Cy5-labeled WWP2, NDP52 (up to 48 uM) or OPTN (up to 60 uM) in two-fold serial dilution; 25 mM Hepes pH 7.8, 250 mM NaCl, 1 mM TCEP, 0.5 mg/ml BSA, 0.05% Tween-20; room temperature; apparent KD, quadratic model.

B1: NDP52 (natural protein)
chain: MEETIKDPPTSAVLLDHCHFSQVIFNSVEKFYIPGGDVTCHYTFTQHFIPRRKDWIGIFRVGWKTTREYYTFMWVTLPIDLNNKSAKQQEVQFKAYYLPKDDEYYQFCYVDEDGVVRGASIPFQFRPENEEDILVVTTQGEVEEIEQHNKELCKENQELKDSCISLQKQNSDMQAELQKKQEELETLQSINKKLELKVKEQKDYWETELLQLKEQNQKMSSENEKMGIRVDQLQAQLSTQEKEMEKLVQGDQDKTEQLEQLKKENDHLFLSLTEQRKDQKKLEQTVEQMKQNETTAMKKQQELMDENFDLSKRLSENEIICNALQRQKERLEGENDLLKRENSRLLSYMGLDFNSLPYQVPTSDEGGARQNPGLAYGNPYSGIQESSSPSPLSIKKCPICKADDICDHTLEQQQMQPLCFNCPICDKIFPATEKQIFEDHVFCHSL
With B1, the Kd came to 19 µM.
